Results: the supplement of paper PMC7125110
± gives the standard error. For some assays here: Fewer inactive variants are shown than the library holds.

B1: glmS ribozyme (parent)
chain: AUAAAAGCGCCAGAACUACAGAAAUGUAGUUGACGAGGAGGAGGUUUAUCGAAUUUUCGGCGGAUGCCUCCAAA

Tests used:
Conditions in all cases: with glucosamine-6-phosphate
glucosamine-6-phosphate [1] = variants of: B1; assay: kcat; higher = faster cleavage; RNA array
Method in brief: (§1)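 Over ~14 h at 37 °C, tiles were imaged as glucosamine-6-phosphate (40 μM to 10 mM) in HEPES/KCl/Mg(OAc)2 buffer flowed across sequenced MiSeq chips. The chips carried barcoded ribozyme variants transcribed in situ by E. coli RNA polymerase and tracked with a hybridised Cy3 probe. After normalisation to baseline and to non-cleaving reference variants, one- or two-exponential decay fits of per-tile medians gave kobs. kcat and KM followed from weighted Michaelis–Menten fits across concentrations.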

glucosamine-6-phosphate [2] = variants of: B1; assay: self-cleavage kobs at 40 uM GlcN6P; higher = faster cleavage; RNA array
Method in brief: as §1

glucosamine-6-phosphate [3] = variants of: B1; assay: self-cleavage kobs at 160 uM GlcN6P; higher = faster cleavage; RNA array
Method in brief: as §1

glucosamine-6-phosphate [4] = variants of: B1; assay: self-cleavage kobs at 2500 uM GlcN6P; higher = faster cleavage; RNA array
Method in brief: as §1

glucosamine-6-phosphate [5] = variants of: B1; assay: self-cleavage kobs at 10000 uM GlcN6P; higher = faster cleavage; RNA array
Method in brief: as §1

glucosamine-6-phosphate [6] = variants of: B1; assay: self-cleavage kobs at 640 uM GlcN6P; higher = faster cleavage; RNA array
Method in brief: as §1

glucosamine-6-phosphate [7] = variants of: B1; assay: KM; higher = weaker cofactor use; RNA array
Method in brief: as §1

## C10A G32U A53U C67U
glucosamine-6-phosphate [1]
  kcat: 1.23e-05 ± 4.1e-06 s⁻¹

## C11G C61U
glucosamine-6-phosphate [1]
  kcat: < 1e-05 s⁻¹
glucosamine-6-phosphate [2]
  self-cleavage kobs at 40 uM GlcN6P: < 1e-05 s⁻¹
glucosamine-6-phosphate [3]
  self-cleavage kobs at 160 uM GlcN6P: < 1e-05 s⁻¹
glucosamine-6-phosphate [4]
  self-cleavage kobs at 2500 uM GlcN6P: < 1e-05 s⁻¹
glucosamine-6-phosphate [5]
  self-cleavage kobs at 10000 uM GlcN6P: < 1e-05 s⁻¹

## C11U U47G
glucosamine-6-phosphate [1]
  kcat: 0.000176 ± 3.3e-05 s⁻¹
glucosamine-6-phosphate [6]
  self-cleavage kobs at 640 uM GlcN6P: 7.97e-05 ± 1.3e-05 s⁻¹
glucosamine-6-phosphate [4]
  self-cleavage kobs at 2500 uM GlcN6P: 0.000191 ± 3.3e-05 s⁻¹
glucosamine-6-phosphate [5]
  self-cleavage kobs at 10000 uM GlcN6P: 0.000149 ± 2.2e-05 s⁻¹

## C11G C70U
glucosamine-6-phosphate [1]
  kcat: 1.5e-05 ± 6.7e-07 s⁻¹
glucosamine-6-phosphate [7]
  KM: 138 ± 61 µM

## G7A U54C
glucosamine-6-phosphate [1]
  kcat: 1.94e-05 ± 3.6e-06 s⁻¹

## C10G C58A
glucosamine-6-phosphate [1]
  kcat: 1.01e-05 ± 1.8e-06 s⁻¹
glucosamine-6-phosphate [6]
  self-cleavage kobs at 640 uM GlcN6P: < 1e-05 s⁻¹
glucosamine-6-phosphate [5]
  self-cleavage kobs at 10000 uM GlcN6P: < 1e-05 s⁻¹

## G9A U47G
glucosamine-6-phosphate [1]
  kcat: < 1e-05 s⁻¹
glucosamine-6-phosphate [6]
  self-cleavage kobs at 640 uM GlcN6P: < 1e-05 s⁻¹

## G9A G13U
glucosamine-6-phosphate [1]
  kcat: < 1e-05 s⁻¹
glucosamine-6-phosphate [4]
  self-cleavage kobs at 2500 uM GlcN6P: < 1e-05 s⁻¹
glucosamine-6-phosphate [5]
  self-cleavage kobs at 10000 uM GlcN6P: < 1e-05 s⁻¹

## C10G A15G
glucosamine-6-phosphate [1]
  kcat: 1.16e-05 ± 4e-06 s⁻¹

## C10G U54A
glucosamine-6-phosphate [1]
  kcat: < 1e-05 s⁻¹
glucosamine-6-phosphate [2]
  self-cleavage kobs at 40 uM GlcN6P: < 1e-05 s⁻¹

## G9A G37U C70G
glucosamine-6-phosphate [1]
  kcat: 1.52e-05 ± 2.5e-06 s⁻¹
glucosamine-6-phosphate [4]
  self-cleavage kobs at 2500 uM GlcN6P: < 1e-05 s⁻¹

## C11A A14G
glucosamine-6-phosphate [1]
  kcat: 0.000935 ± 5.4e-05 s⁻¹
glucosamine-6-phosphate [7]
  KM: 1790 ± 200 µM
glucosamine-6-phosphate [2]
  self-cleavage kobs at 40 uM GlcN6P: 1.65e-05 ± 7.4e-06 s⁻¹
glucosamine-6-phosphate [3]
  self-cleavage kobs at 160 uM GlcN6P: 7.64e-05 ± 2e-05 s⁻¹
glucosamine-6-phosphate [6]
  self-cleavage kobs at 640 uM GlcN6P: 0.000261 ± 3.2e-05 s⁻¹
glucosamine-6-phosphate [4]
  self-cleavage kobs at 2500 uM GlcN6P: 0.00051 ± 7.7e-05 s⁻¹
glucosamine-6-phosphate [5]
  self-cleavage kobs at 10000 uM GlcN6P: 0.000802 ± 7.8e-05 s⁻¹

## C10U C11U A12G
glucosamine-6-phosphate [1]
  kcat: 2.44e-05 ± 6.4e-06 s⁻¹
glucosamine-6-phosphate [3]
  self-cleavage kobs at 160 uM GlcN6P: < 1e-05 s⁻¹

## C11A C67A
glucosamine-6-phosphate [1]
  kcat: 6.14e-05 ± 1e-05 s⁻¹
glucosamine-6-phosphate [6]
  self-cleavage kobs at 640 uM GlcN6P: 7.25e-05 ± 1.2e-05 s⁻¹
glucosamine-6-phosphate [4]
  self-cleavage kobs at 2500 uM GlcN6P: 6.18e-05 ± 1.1e-05 s⁻¹
glucosamine-6-phosphate [5]
  self-cleavage kobs at 10000 uM GlcN6P: 5.12e-05 ± 9.8e-06 s⁻¹

## C8U C10A A15U G38A C50U
glucosamine-6-phosphate [1]
  kcat: < 1e-05 s⁻¹

## C10A G38C
glucosamine-6-phosphate [1]
  kcat: < 1e-05 s⁻¹
glucosamine-6-phosphate [3]
  self-cleavage kobs at 160 uM GlcN6P: < 1e-05 s⁻¹
glucosamine-6-phosphate [6]
  self-cleavage kobs at 640 uM GlcN6P: < 1e-05 s⁻¹

## A12C A33C
glucosamine-6-phosphate [1]
  kcat: 0.000196 ± 1.6e-05 s⁻¹
glucosamine-6-phosphate [7]
  KM: 2860 ± 540 µM
glucosamine-6-phosphate [6]
  self-cleavage kobs at 640 uM GlcN6P: 3.98e-05 ± 9.4e-06 s⁻¹
glucosamine-6-phosphate [4]
  self-cleavage kobs at 2500 uM GlcN6P: 8.11e-05 ± 1.8e-05 s⁻¹
glucosamine-6-phosphate [5]
  self-cleavage kobs at 10000 uM GlcN6P: 0.000156 ± 1.8e-05 s⁻¹

## A12C A33U
glucosamine-6-phosphate [1]
  kcat: 0.000132 ± 1.7e-05 s⁻¹
glucosamine-6-phosphate [7]
  KM: 3330 ± 1200 µM
glucosamine-6-phosphate [4]
  self-cleavage kobs at 2500 uM GlcN6P: 6.22e-05 ± 7.4e-06 s⁻¹
glucosamine-6-phosphate [5]
  self-cleavage kobs at 10000 uM GlcN6P: 9.81e-05 ± 6.4e-06 s⁻¹

## C11A C16G
glucosamine-6-phosphate [1]
  kcat: 0.000161 ± 3.7e-05 s⁻¹
glucosamine-6-phosphate [5]
  self-cleavage kobs at 10000 uM GlcN6P: 5.99e-05 ± 1.1e-05 s⁻¹

## C11A U56G
glucosamine-6-phosphate [1]
  kcat: 0.00015 ± 3.9e-05 s⁻¹
glucosamine-6-phosphate [6]
  self-cleavage kobs at 640 uM GlcN6P: 6.35e-05 ± 1.2e-05 s⁻¹
glucosamine-6-phosphate [4]
  self-cleavage kobs at 2500 uM GlcN6P: 7.76e-05 ± 1.1e-05 s⁻¹
glucosamine-6-phosphate [5]
  self-cleavage kobs at 10000 uM GlcN6P: 0.000155 ± 1.9e-05 s⁻¹

## C10A U57A
glucosamine-6-phosphate [1]
  kcat: < 1e-05 s⁻¹
glucosamine-6-phosphate [6]
  self-cleavage kobs at 640 uM GlcN6P: < 1e-05 s⁻¹

## C10A U46G C50U C68U
glucosamine-6-phosphate [1]
  kcat: 3.67e-05 ± 1.3e-05 s⁻¹

## A12C A14U C16U U46G
glucosamine-6-phosphate [1]
  kcat: 3.1e-05 ± 6.8e-06 s⁻¹

## C10A U56A
glucosamine-6-phosphate [1]
  kcat: < 1e-05 s⁻¹
glucosamine-6-phosphate [5]
  self-cleavage kobs at 10000 uM GlcN6P: < 1e-05 s⁻¹

## C11U G41A
glucosamine-6-phosphate [1]
  kcat: 8.97e-05 ± 1e-05 s⁻¹
glucosamine-6-phosphate [6]
  self-cleavage kobs at 640 uM GlcN6P: 3.01e-05 ± 1.2e-05 s⁻¹
glucosamine-6-phosphate [4]
  self-cleavage kobs at 2500 uM GlcN6P: 8.81e-05 ± 1.8e-05 s⁻¹
glucosamine-6-phosphate [5]
  self-cleavage kobs at 10000 uM GlcN6P: 7.91e-05 ± 8.6e-06 s⁻¹
